What was measured:
Assay in all cases: holdup assay
Parameters in all cases: key: below the threshold = too weak to quantify, mostly under pKd 3.1 to 4
TJP1_2, Q07157 = target: TJP1_2, Q07157
GRIP2_3, Q9C0E4 = target: GRIP2_3, Q9C0E4
PDLIM1, O00151 = target: PDLIM1, O00151
LDB3, O75112 = target: LDB3, O75112
SNTB1, Q13884 = target: T1, SNTB1, Q13884
T1 sequence (Q13884 107-205, limits assumed, looked up): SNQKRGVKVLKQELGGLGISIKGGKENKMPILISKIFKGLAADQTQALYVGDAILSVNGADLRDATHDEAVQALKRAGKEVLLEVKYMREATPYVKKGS

MAST2, Q6P0Q8 = target: MAST2, Q6P0Q8
Chain of MAST2, Q6P0Q8 (Q6P0Q8 1099-1202): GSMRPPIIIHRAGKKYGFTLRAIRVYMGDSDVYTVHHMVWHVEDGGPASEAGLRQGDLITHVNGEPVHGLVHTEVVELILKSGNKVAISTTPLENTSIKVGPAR

ARHGEF12, Q9NZN5-2 = target: ARHGEF12, Q9NZN5-2
Chain of ARHGEF12, Q9NZN5-2 (Q9NZN5 other isoform, or with tags, fused parts or gaps): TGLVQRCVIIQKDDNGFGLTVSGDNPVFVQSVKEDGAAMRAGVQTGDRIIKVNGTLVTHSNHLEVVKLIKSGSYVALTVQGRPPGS

MPP6, Q9NZW5 = target: T2, MPP6, Q9NZW5
T2 sequence (Q9NZW5 125-219, limits assumed, looked up): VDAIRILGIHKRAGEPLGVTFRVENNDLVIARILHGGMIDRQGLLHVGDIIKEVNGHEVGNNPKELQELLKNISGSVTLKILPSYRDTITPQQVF

LNX1_3, Q8TBB1 = target: LNX1_3, Q8TBB1
Chain of LNX1_3, Q8TBB1 (Q8TBB1 500-596): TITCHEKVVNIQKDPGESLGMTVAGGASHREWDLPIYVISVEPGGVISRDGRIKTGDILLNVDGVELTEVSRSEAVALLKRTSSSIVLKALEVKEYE

NHERF3_1, Q5T2W1 = target: T3, NHERF3_1, Q5T2W1
T3 sequence (Q5T2W1 4-100, limits assumed, looked up): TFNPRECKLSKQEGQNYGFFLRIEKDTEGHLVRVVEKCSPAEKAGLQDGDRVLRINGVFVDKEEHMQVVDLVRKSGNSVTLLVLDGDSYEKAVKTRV

GRIP2_6, Q9C0E4 = target: GRIP2_6, Q9C0E4
Chain of GRIP2_6, Q9C0E4 (Q9C0E4 648-740): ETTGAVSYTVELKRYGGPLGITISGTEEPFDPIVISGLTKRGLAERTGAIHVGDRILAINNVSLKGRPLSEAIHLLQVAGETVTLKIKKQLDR

SCRIB_2, Q14160 = target: SCRIB_2, Q14160
Chain of SCRIB_2, Q14160 (Q14160 857-960): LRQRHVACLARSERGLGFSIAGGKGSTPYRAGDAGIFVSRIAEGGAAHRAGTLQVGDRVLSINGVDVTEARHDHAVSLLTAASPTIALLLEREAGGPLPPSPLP

MPP2, Q14168 = target: T4, MPP2, Q14168
T4 sequence (Q14168 180-250, limits assumed, looked up): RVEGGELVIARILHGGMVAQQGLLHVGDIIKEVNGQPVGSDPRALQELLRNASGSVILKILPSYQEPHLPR

FRMPD2_1, Q68DX3 = target: FRMPD2_1, Q68DX3
Chain of FRMPD2_1, Q68DX3 (Q68DX3 770-861): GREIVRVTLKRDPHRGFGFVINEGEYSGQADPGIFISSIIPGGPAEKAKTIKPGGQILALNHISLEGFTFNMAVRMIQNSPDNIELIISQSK

Inadl_1, Q8NI35 = target: Inadl_1, Q8NI35
Chain of Inadl_1, Q8NI35 (Q8NI35 113-229): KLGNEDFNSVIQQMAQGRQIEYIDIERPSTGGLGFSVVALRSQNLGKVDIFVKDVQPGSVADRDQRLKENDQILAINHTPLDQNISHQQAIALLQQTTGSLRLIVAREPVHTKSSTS

DLG2_2, Q15700 = target: DLG2_2, Q15700
DLG3_1, Q92796 = target: T5, DLG3_1, Q92796
T5 sequence (Q92796 125-227, limits assumed, looked up): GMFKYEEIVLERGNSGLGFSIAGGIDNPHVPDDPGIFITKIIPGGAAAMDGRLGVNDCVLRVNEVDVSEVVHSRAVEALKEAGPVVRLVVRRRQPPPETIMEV

PDZRN3_1, Q9UPQ7 = target: T6, PDZRN3_1, Q9UPQ7
T6 sequence (Q9UPQ7 244-349, limits assumed, looked up): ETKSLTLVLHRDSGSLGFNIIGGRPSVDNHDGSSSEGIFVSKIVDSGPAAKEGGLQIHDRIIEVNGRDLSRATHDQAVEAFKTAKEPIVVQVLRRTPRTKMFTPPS

TX1BP3, O14907 = target: T7, TX1BP3, O14907
T7 sequence (O14907 10-122, limits assumed, looked up): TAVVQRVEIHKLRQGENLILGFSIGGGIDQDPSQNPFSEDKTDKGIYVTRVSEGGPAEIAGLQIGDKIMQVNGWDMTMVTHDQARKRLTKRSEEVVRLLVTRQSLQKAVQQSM

DLG2_3, Q15700 = target: DLG2_3, Q15700
GORASP2, Q9H8Y8 = target: GORASP2, Q9H8Y8
NHERF3_4, Q5T2W1 = target: T8, NHERF3_4, Q5T2W1
T8 sequence (Q5T2W1 373-468, limits assumed, looked up): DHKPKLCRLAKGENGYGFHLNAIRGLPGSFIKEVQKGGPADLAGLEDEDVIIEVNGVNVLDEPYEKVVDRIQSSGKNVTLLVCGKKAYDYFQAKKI

LIN7B, Q9HAP6 = target: T9, LIN7B, Q9HAP6
T9 sequence (Q9HAP6 88-185, limits assumed, looked up): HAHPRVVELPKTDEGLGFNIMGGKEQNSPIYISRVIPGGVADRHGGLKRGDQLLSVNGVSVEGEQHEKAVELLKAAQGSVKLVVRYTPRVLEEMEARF

HTRA4, P83105 = target: T10, HTRA4, P83105
T10 sequence (P83105 378-476, limits assumed, looked up): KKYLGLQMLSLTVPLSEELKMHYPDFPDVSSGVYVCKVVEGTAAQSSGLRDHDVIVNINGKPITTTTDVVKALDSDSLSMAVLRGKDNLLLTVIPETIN

LRRC7, Q96NW7 = target: T11, LRRC7, Q96NW7
T11 sequence (Q96NW7 1440-1537, limits assumed, looked up): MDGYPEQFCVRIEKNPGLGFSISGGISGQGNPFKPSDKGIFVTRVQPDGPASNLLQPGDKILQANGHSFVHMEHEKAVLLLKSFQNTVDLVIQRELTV

GRIP2_5, Q9C0E4 = target: GRIP2_5, Q9C0E4
Chain of GRIP2_5, Q9C0E4 (Q9C0E4 544-642): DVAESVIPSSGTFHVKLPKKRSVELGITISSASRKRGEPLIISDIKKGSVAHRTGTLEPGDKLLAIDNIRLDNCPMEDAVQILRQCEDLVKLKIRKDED

[1] = plain residues with an end cap or a label only (N-terminal biotin on a linker: ttds)
[2] = plain residues with an end cap or a label only (N-terminal biotin on a linker: none)
[3] = plain residues with an end cap or a label only (N-terminal biotin on a linker: ahx)

Chain of PDLIM1, O00151 (O00151 1-87): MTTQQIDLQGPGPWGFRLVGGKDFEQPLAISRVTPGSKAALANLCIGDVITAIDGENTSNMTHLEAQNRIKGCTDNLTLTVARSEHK
Chain of LDB3, O75112 (O75112 1-94): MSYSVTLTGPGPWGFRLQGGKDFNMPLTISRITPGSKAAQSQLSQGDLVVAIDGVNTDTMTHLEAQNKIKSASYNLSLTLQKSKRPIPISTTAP
Chain of TJP1_2, Q07157 (Q07157 181-274): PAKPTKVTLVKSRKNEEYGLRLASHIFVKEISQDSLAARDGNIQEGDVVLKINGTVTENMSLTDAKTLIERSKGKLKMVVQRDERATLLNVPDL
Chain of GRIP2_3, Q9C0E4 (Q9C0E4 238-339): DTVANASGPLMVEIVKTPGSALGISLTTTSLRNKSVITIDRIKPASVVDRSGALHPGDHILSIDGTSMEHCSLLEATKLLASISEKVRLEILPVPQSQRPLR

B1: OTULIN, Q96BN8 (peptide)
chain: PVRVCEETSL
- pKd (TJP1_2, Q07157; [1]): below the threshold
- pKd (GRIP2_3, Q9C0E4; [1]): 3.57
- pKd (PDLIM1, O00151; [1]): below the threshold
- pKd (LDB3, O75112; [1]): below the threshold
- pKd (SNTB1, Q13884; [1]): 4.61
- pKd (MAST2, Q6P0Q8; [1]): 5.28
- pKd (ARHGEF12, Q9NZN5-2; [1]): 4.8
- pKd (MPP6, Q9NZW5; [1]): below the threshold
- pKd (LNX1_3, Q8TBB1; [1]): below the threshold
- pKd (NHERF3_1, Q5T2W1; [1]): 5.92
- pKd (GRIP2_6, Q9C0E4; [1]): 3.53
- pKd (SCRIB_2, Q14160; [1]): 4.7
- pKd (MPP2, Q14168; [1]): below the threshold
- pKd (FRMPD2_1, Q68DX3; [1]): below the threshold
- pKd (Inadl_1, Q8NI35; [1]): 3.7
- pKd (DLG2_2, Q15700; [1]): 3.87
- pKd (DLG3_1, Q92796; [1]): 3.75
- pKd (PDZRN3_1, Q9UPQ7; [1]): 4.99
- pKd (TX1BP3, O14907; [1]): 4.37
- pKd (DLG2_3, Q15700; [1]): 3.95
- pKd (GORASP2, Q9H8Y8; [1]): below the threshold
- pKd (NHERF3_4, Q5T2W1; [1]): below the threshold
- pKd (LIN7B, Q9HAP6; [1]): 3.85
- pKd (HTRA4, P83105; [1]): below the threshold
- pKd (LRRC7, Q96NW7; [1]): below the threshold
- pKd (GRIP2_5, Q9C0E4; [1]): below the threshold

B2: HPV73-E6, Q82005 (peptide)
chain: SGSRPSATVV
- pKd (TJP1_2, Q07157; [1]): below the threshold
- pKd (GRIP2_3, Q9C0E4; [1]): below the threshold
- pKd (PDLIM1, O00151; [1]): 3.48
- pKd (LDB3, O75112; [1]): below the threshold
- pKd (SNTB1, Q13884; [1]): below the threshold
- pKd (MAST2, Q6P0Q8; [1]): 3.88
- pKd (ARHGEF12, Q9NZN5-2; [1]): below the threshold
- pKd (MPP6, Q9NZW5; [1]): 3.57
- pKd (LNX1_3, Q8TBB1; [1]): below the threshold
- pKd (NHERF3_1, Q5T2W1; [1]): below the threshold
- pKd (GRIP2_6, Q9C0E4; [1]): below the threshold
- pKd (SCRIB_2, Q14160; [1]): 3.56
- pKd (MPP2, Q14168; [1]): below the threshold
- pKd (FRMPD2_1, Q68DX3; [1]): 3.51
- pKd (Inadl_1, Q8NI35; [1]): below the threshold
- pKd (DLG2_2, Q15700; [1]): 4.03
- pKd (DLG3_1, Q92796; [1]): below the threshold
- pKd (PDZRN3_1, Q9UPQ7; [1]): below the threshold
- pKd (TX1BP3, O14907; [1]): below the threshold
- pKd (DLG2_3, Q15700; [1]): 3.61
- pKd (GORASP2, Q9H8Y8; [1]): 4.13
- pKd (NHERF3_4, Q5T2W1; [1]): 3.6
- pKd (LIN7B, Q9HAP6; [1]): below the threshold
- pKd (HTRA4, P83105; [1]): 3.86
- pKd (LRRC7, Q96NW7; [1]): 3.54
- pKd (GRIP2_5, Q9C0E4; [1]): below the threshold

B3: SARS-CoV2-E, P0DTC4 (peptide)
chain: NLNSSRVPDLLV
- pKd (TJP1_2, Q07157; [2]): 5.52
- pKd (GRIP2_3, Q9C0E4; [2]): below the threshold
- pKd (PDLIM1, O00151; [2]): below the threshold
- pKd (LDB3, O75112; [2]): below the threshold
- pKd (SNTB1, Q13884; [2]): below the threshold
- pKd (MAST2, Q6P0Q8; [2]): below the threshold
- pKd (ARHGEF12, Q9NZN5-2; [2]): below the threshold
- pKd (MPP6, Q9NZW5; [2]): below the threshold
- pKd (LNX1_3, Q8TBB1; [2]): below the threshold
- pKd (NHERF3_1, Q5T2W1; [2]): below the threshold
- pKd (GRIP2_6, Q9C0E4; [2]): below the threshold
- pKd (SCRIB_2, Q14160; [2]): below the threshold
- pKd (MPP2, Q14168; [2]): below the threshold
- pKd (FRMPD2_1, Q68DX3; [2]): below the threshold
- pKd (Inadl_1, Q8NI35; [2]): below the threshold
- pKd (DLG2_2, Q15700; [2]): below the threshold
- pKd (DLG3_1, Q92796; [2]): below the threshold
- pKd (PDZRN3_1, Q9UPQ7; [2]): below the threshold
- pKd (TX1BP3, O14907; [2]): below the threshold
- pKd (DLG2_3, Q15700; [2]): below the threshold
- pKd (GORASP2, Q9H8Y8; [2]): below the threshold
- pKd (NHERF3_4, Q5T2W1; [2]): below the threshold
- pKd (LIN7B, Q9HAP6; [2]): below the threshold
- pKd (HTRA4, P83105; [2]): below the threshold
- pKd (LRRC7, Q96NW7; [2]): below the threshold
- pKd (GRIP2_5, Q9C0E4; [2]): below the threshold

B4: LNX2, Q8N448 (peptide)
chain: TVICWPGSLV
- pKd (TJP1_2, Q07157; [3]): below the threshold
- pKd (GRIP2_3, Q9C0E4; [3]): below the threshold
- pKd (PDLIM1, O00151; [3]): 4.31
- pKd (LDB3, O75112; [3]): below the threshold
- pKd (SNTB1, Q13884; [3]): 4.1
- pKd (MAST2, Q6P0Q8; [3]): 4.1
- pKd (ARHGEF12, Q9NZN5-2; [3]): below the threshold
- pKd (MPP6, Q9NZW5; [3]): below the threshold
- pKd (LNX1_3, Q8TBB1; [3]): 3.57
- pKd (NHERF3_1, Q5T2W1; [3]): 4.73
- pKd (GRIP2_6, Q9C0E4; [3]): below the threshold
- pKd (SCRIB_2, Q14160; [3]): 3.65
- pKd (MPP2, Q14168; [3]): 3.62
- pKd (FRMPD2_1, Q68DX3; [3]): 4.13
- pKd (Inadl_1, Q8NI35; [3]): below the threshold
- pKd (DLG2_2, Q15700; [3]): 3.9
- pKd (DLG3_1, Q92796; [3]): 4.01
- pKd (PDZRN3_1, Q9UPQ7; [3]): 4.17
- pKd (TX1BP3, O14907; [3]): 4.59
- pKd (DLG2_3, Q15700; [3]): 4.24
- pKd (GORASP2, Q9H8Y8; [3]): 4.55
- pKd (NHERF3_4, Q5T2W1; [3]): below the threshold
- pKd (LIN7B, Q9HAP6; [3]): 4.46
- pKd (HTRA4, P83105; [3]): 4.45
- pKd (LRRC7, Q96NW7; [3]): below the threshold
- pKd (GRIP2_5, Q9C0E4; [3]): below the threshold

B5: PDLIM4, P50479;P50479-2 (peptide)
chain: PSASCAVTAA
- pKd (TJP1_2, Q07157; [3]): below the threshold
- pKd (GRIP2_3, Q9C0E4; [3]): below the threshold
- pKd (PDLIM1, O00151; [3]): below the threshold
- pKd (LDB3, O75112; [3]): below the threshold
- pKd (SNTB1, Q13884; [3]): below the threshold
- pKd (MAST2, Q6P0Q8; [3]): below the threshold
- pKd (ARHGEF12, Q9NZN5-2; [3]): below the threshold
- pKd (MPP6, Q9NZW5; [3]): below the threshold
- pKd (LNX1_3, Q8TBB1; [3]): below the threshold
- pKd (NHERF3_1, Q5T2W1; [3]): below the threshold
- pKd (GRIP2_6, Q9C0E4; [3]): below the threshold
- pKd (SCRIB_2, Q14160; [3]): below the threshold
- pKd (MPP2, Q14168; [3]): below the threshold
- pKd (FRMPD2_1, Q68DX3; [3]): below the threshold
- pKd (Inadl_1, Q8NI35; [3]): below the threshold
- pKd (DLG2_2, Q15700; [3]): below the threshold
- pKd (DLG3_1, Q92796; [3]): below the threshold
- pKd (PDZRN3_1, Q9UPQ7; [3]): below the threshold
- pKd (TX1BP3, O14907; [3]): below the threshold
- pKd (DLG2_3, Q15700; [3]): below the threshold
- pKd (GORASP2, Q9H8Y8; [3]): below the threshold
- pKd (NHERF3_4, Q5T2W1; [3]): below the threshold
- pKd (LIN7B, Q9HAP6; [3]): below the threshold
- pKd (HTRA4, P83105; [3]): below the threshold
- pKd (LRRC7, Q96NW7; [3]): below the threshold
- pKd (GRIP2_5, Q9C0E4; [3]): below the threshold

Source: publication PMC9482650, “Quantitative fragmentomics allow affinity mapping of interactomes” (Nature Communications, 2022)
